Test [1] addresses T1, SCaMC-1 transmembrane domain (TMD), residues 185-477, incorporated in POPC/POPG/cardiolipin liposomes (human, UniProt Q6NUK1 185-477).
T1 sequence (looked up): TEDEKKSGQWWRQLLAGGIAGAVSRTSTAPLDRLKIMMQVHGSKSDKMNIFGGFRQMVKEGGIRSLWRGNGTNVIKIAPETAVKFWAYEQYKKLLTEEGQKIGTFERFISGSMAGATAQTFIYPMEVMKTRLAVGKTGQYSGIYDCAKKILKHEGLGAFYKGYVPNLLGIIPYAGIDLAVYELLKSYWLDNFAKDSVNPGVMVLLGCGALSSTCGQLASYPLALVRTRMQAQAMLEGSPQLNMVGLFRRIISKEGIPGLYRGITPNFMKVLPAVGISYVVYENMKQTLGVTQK
Kind of test: SPR.

Test [2] addresses T1, SCaMC-1 transmembrane domain (TMD), …. Nature of the test: SPR. This is another data set of the same source.

Where two headings read alike, the source gives them in different places.

B1: Human SCaMC-1 N-terminal domain (NTD), residues 1-193 (domain or fragment, UniProt Q6NUK1 1-193, looked up)
chain: MLRWLRDFVLPTAACQDAEQPTRYETLFQALDRNGDGVVDIGELQEGLRNLGIPLGQDAEEKIFTTGDVNKDGKLDFEEFMKYLKDHEKKMKLAFKSLDKNNDGKIEASEIVQSLQTLGLTISEQQAELILQSIDVDGTMTVDWNEWRDYFLFNPVTDIEEIIRFWKHSTGIDIGDSLTIPDEFTEDEKKSGQ
As to B1, the equilibrium dissociation constant (Kd) in test [1] stood at 250 µM; in test [2], 5600 µM.

A word on the Kd: it is the concentration at which binding is half-saturated. Read a high Kd as a looser complex.

(Values after article PMC3946054 (Structure (London, England : 1993), 2013).)
